Source: patent publication US20160175440A1, “COMPOSITIONS AND METHODS FOR THE […] OF BURKHOLDERIA INFECTIONS” (Research Institute at Nationwide Children's Hospital, published 2016)

Target: Integration host factor (IHF alpha/beta heterodimer) (Escherichia coli, UniProt P0A6X7;P0A6Y1 SEQ:1-99,SEQ:1-94)
Assay: footprint; DNase I footprint at 50 nM IHF; hypersensitive site indicative of DNA bending
Settings: tags: crystallographically pure IHF, gift of Howard Nash, NIH; no tag stated; label: 32P end label

Chain of Integration host factor (IHF alpha/beta heterodimer) (P0A6X7 whole entry, chain 1 of 2): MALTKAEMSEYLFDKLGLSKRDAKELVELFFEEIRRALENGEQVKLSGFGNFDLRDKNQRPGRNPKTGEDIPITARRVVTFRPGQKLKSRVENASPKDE
Chain of Integration host factor (IHF alpha/beta heterodimer) (P0A6Y1 whole entry, chain 2 of 2): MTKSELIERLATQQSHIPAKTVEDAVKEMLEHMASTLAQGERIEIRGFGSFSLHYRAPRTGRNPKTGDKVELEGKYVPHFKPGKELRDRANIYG

B1: 386 bp BCAL0339-BCAL0340 intergenic region (T6SS gene cluster upstream) (dsDNA)
DNA 1: TCTCAACGATTTA
DNA 2: TAAATCGTTGAGA
B1: binds.
